Assay results: patent US20100260668A1 (published 2010)

Legend:
[1] = biological target: T1, DLL4 (DLL ECD His tag, R&D 1506-D4-050) (UniProt Q9NR61 27-529); experiment: BIACORE (SPR), DVD-Ig against DLL4
T1 construct: extracellular domain; bought

VEGF = biological target: T2, VEGF (UniProt P15692-4 27-191); experiment: BIACORE SPR
T2 construct: Bought reagent; also called vascular endothelial growth factor
T2 sequence (P15692 other isoform, or with tags, fused parts or gaps limits assumed): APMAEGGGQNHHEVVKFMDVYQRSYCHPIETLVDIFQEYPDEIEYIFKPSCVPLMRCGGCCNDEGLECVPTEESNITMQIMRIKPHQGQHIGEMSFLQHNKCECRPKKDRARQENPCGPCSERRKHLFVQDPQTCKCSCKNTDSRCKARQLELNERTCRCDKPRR

Row | Binder | Kd [1] [nM] | koff [1] [s⁻¹] | kon [1] [M⁻¹ s⁻¹] | Kd (VEGF) [nM] | koff (VEGF) [s⁻¹] | kon (VEGF) [M⁻¹ s⁻¹]
1 | DVD518 (bispecific antibody, human IgG1, kappa, lambda, DVD-Ig; N-term; VD VEGF (AB014), C-term; VD DLL4 (AB073); HC linker long, LC linker long; also called DVD-Ig DVD518; DVD518H) heavy: not shown light: DIQMTQSPSSLSASVGDRVTITCSASQDISNYLNWYQQKPGKAPKVLIYFTSSLHSGVPSRFSGSGSGTDFTLTISSLQPEDFATYYCQQYSTVPWTFGQGTKVEIKRTVAAPSVFIFPPQAVVTQESALTTSPGETVTLTCRSSTGAVTTSNYANWVQEKPDHLFTGLIGGTNNRAPGVPARFSGSLIGDKAALTITGAQTEDEAIYFCALWYSNHWVFGGGTKLTVLGQPKAAPSVTLFPPSSEELQANKATLVCLISDFYPGAVTVAWKADSSPVKAGVETTTPSKQSNNKYAASSYLSLTPEQWKSHRSYSCQVTHEGSTVEKTVAPTECS | 3.72 | 0.000454 | 122000 | – | – | –
2 | DVD530 (bispecific antibody, human IgG1, kappa, lambda, L234A L235A, DVD-Ig; N-term; VD VEGF (AB014), C-term; VD DLL4 (AB073); HC linker short, LC linker long; also called DVD-Ig DVD530; DVD530H) heavy: not shown light: DIQMTQSPSSLSASVGDRVTITCSASQDISNYLNWYQQKPGKAPKVLIYFTSSLHSGVPSRFSGSGSGTDFTLTISSLQPEDFATYYCQQYSTVPWTFGQGTKVEIKRTVAAPSVFIFPPQAVVTQESALTTSPGETVTLTCRSSTGAVTTSNYANWVQEKPDHLFTGLIGGTNNRAPGVPARFSGSLIGDKAALTITGAQTEDEAIYFCALWYSNHWVFGGGTKLTVLGQPKAAPSVTLFPPSSEELQANKATLVCLISDFYPGAVTVAWKADSSPVKAGVETTTPSKQSNNKYAASSYLSLTPEQWKSHRSYSCQVTHEGSTVEKTVAPTECS | 5.38 | 0.00219 | 407000 | – | – | –
3 | DVD512 (bispecific antibody, human IgG1, lambda, L234A L235A, DVD-Ig; N-term; VD VEGF (AB014), C-term; VD DLL4 (AB073); HC linker short, LC linker short; also called DVD-Ig DVD512; DVD512H) heavy: not shown light: DIQMTQSPSSLSASVGDRVTITCSASQDISNYLNWYQQKPGKAPKVLIYFTSSLHSGVPSRFSGSGSGTDFTLTISSLQPEDFATYYCQQYSTVPWTFGQGTKVEIKRTVAAPQAVVTQESALTTSPGETVTLTCRSSTGAVTTSNYANWVQEKPDHLFTGLIGGTNNRAPGVPARFSGSLIGDKAALTITGAQTEDEAIYFCALWYSNHWVFGGGTKLTVLGQPKAAPSVTLFPPSSEELQANKATLVCLISDFYPGAVTVAWKADSSPVKAGVETTTPSKQSNNKYAASSYLSLTPEQWKSHRSYSCQVTHEGSTVEKTVAPTECS | 2.94 | 0.000757 | 258000 | – | – | –
4 | DVD524 (bispecific antibody, human IgG1, lambda, DVD-Ig; N-term; VD VEGF (AB014), C-term; VD DLL4 (AB073); HC linker long, LC linker short; also called DVD-Ig DVD524; DVD524H) heavy: not shown light: DIQMTQSPSSLSASVGDRVTITCSASQDISNYLNWYQQKPGKAPKVLIYFTSSLHSGVPSRFSGSGSGTDFTLTISSLQPEDFATYYCQQYSTVPWTFGQGTKVEIKRTVAAPQAVVTQESALTTSPGETVTLTCRSSTGAVTTSNYANWVQEKPDHLFTGLIGGTNNRAPGVPARFSGSLIGDKAALTITGAQTEDEAIYFCALWYSNHWVFGGGTKLTVLGQPKAAPSVTLFPPSSEELQANKATLVCLISDFYPGAVTVAWKADSSPVKAGVETTTPSKQSNNKYAASSYLSLTPEQWKSHRSYSCQVTHEGSTVEKTVAPTECS | 9.45 | 0.000877 | 92800 | – | – | –
5 | DVD497 (bispecific antibody, human IgG1, kappa, DVD-Ig; N-term; AB072 (DLL4), C-term; AB071 (VEGF); HC linker long, LC linker long; also called DVD497H; DVD497L) heavy: not shown light: DIQMTQSSSYLSVSLGGRVTITCKASDHINNWLAWYQQKPGNAPRLLISGATSLETGVPSRFSGSGSGKDYTLSITSLQTEDVATYYCQQYWSIPLTFGAGTKLELKRTVAAPSVFIFPPDIQMTQSPSSLSASVGDRVTITCRASQVIRRSLAWYQQKPGKAPKLLIYAASNLASGVPSRFSGSGSGTDFTLTISSLQPEDFATYYCQQSNTSPLTFGQGTKVEIKRTVAAPSVFIFPPSDEQLKSGTASVVCLLNNFYPREAKVQWKVDNALQSGNSQESVTEQDSKDSTYSLSSTLTLSKADYEKHKVYACEVTHQGLSSPVTKSFNRGEC | – | – | – | 0.668 | 8.37e-05 | 125000
6 | DVD509 (bispecific antibody, human IgG1, kappa, DVD-Ig; N-term; AB072 (DLL4), C-term; AB071 (VEGF); HC linker short, LC linker long; also called DVD509H; DVD509L) heavy: not shown light: DIQMTQSSSYLSVSLGGRVTITCKASDHINNWLAWYQQKPGNAPRLLISGATSLETGVPSRFSGSGSGKDYTLSITSLQTEDVATYYCQQYWSIPLTFGAGTKLELKRTVAAPSVFIFPPDIQMTQSPSSLSASVGDRVTITCRASQVIRRSLAWYQQKPGKAPKLLIYAASNLASGVPSRFSGSGSGTDFTLTISSLQPEDFATYYCQQSNTSPLTFGQGTKVEIKRTVAAPSVFIFPPSDEQLKSGTASVVCLLNNFYPREAKVQWKVDNALQSGNSQESVTEQDSKDSTYSLSSTLTLSKADYEKHKVYACEVTHQGLSSPVTKSFNRGEC | – | – | – | 0.0613 | 7.83e-06 | 128000
7 | DVD488 (bispecific antibody, human IgG1, kappa, DVD-Ig; N-term; VD VEGF (AB014), C-term; VD DLL4 (AB072); HC linker short, LC linker short; also called DVD-Ig DVD488; DVD488H) heavy: not shown light: DIQMTQSPSSLSASVGDRVTITCSASQDISNYLNWYQQKPGKAPKVLIYFTSSLHSGVPSRFSGSGSGTDFTLTISSLQPEDFATYYCQQYSTVPWTFGQGTKVEIKRTVAAPDIQMTQSSSYLSVSLGGRVTITCKASDHINNWLAWYQQKPGNAPRLLISGATSLETGVPSRFSGSGSGKDYTLSITSLQTEDVATYYCQQYWSIPLTFGAGTKLELKRTVAAPSVFIFPPSDEQLKSGTASVVCLLNNFYPREAKVQWKVDNALQSGNSQESVTEQDSKDSTYSLSSTLTLSKADYEKHKVYACEVTHQGLSSPVTKSFNRGEC | 0.418 | 6.62e-05 | 159000 | – | – | –
8 | DVD470 (bispecific antibody, human IgG1, kappa, DVD-Ig; N-term; VD VEGF (AB014), C-term; VD DLL4 (AB015); HC linker long, LC linker long; also called DVD-Ig DVD470; DVD470H) heavy: not shown light: DIQMTQSPSSLSASVGDRVTITCSASQDISNYLNWYQQKPGKAPKVLIYFTSSLHSGVPSRFSGSGSGTDFTLTISSLQPEDFATYYCQQYSTVPWTFGQGTKVEIKRTVAAPSVFIFPPDIQMTQSPSSLSASVGDRVTITCRASQDVSTAVAWYQQKPGKAPKLLIYSASFLYSGVPSRFSGSGSGTDFTLTISSLQPEDFATTYYCQQSYTGTVTFGQGTKVEIKRTVAAPSVFIFPPSDEQLKSGTASVVCLLNNFYPREAKVQWKVDNALQSGNSQESVTEQDSKDSTYSLSSTLTLSKADYEKHKVYACEVTHQGLSSPVTKSFNRGEC | 1.03 | 7.02e-05 | 68400 | – | – | –
9 | DVD482 (bispecific antibody, human IgG1, kappa, DVD-Ig; N-term; VD VEGF (AB014), C-term; VD DLL4 (AB015); HC linker short, LC linker long; also called DVD-Ig DVD482; DVD482H) heavy: not shown light: DIQMTQSPSSLSASVGDRVTITCSASQDISNYLNWYQQKPGKAPKVLIYFTSSLHSGVPSRFSGSGSGTDFTLTISSLQPEDFATYYCQQYSTVPWTFGQGTKVEIKRTVAAPSVFIFPPDIQMTQSPSSLSASVGDRVTITCRASQDVSTAVAWYQQKPGKAPKLLIYSASFLYSGVPSRFSGSGSGTDFTLTISSLQPEDFATTYYCQQSYTGTVTFGQGTKVEIKRTVAAPSVFIFPPSDEQLKSGTASVVCLLNNFYPREAKVQWKVDNALQSGNSQESVTEQDSKDSTYSLSSTLTLSKADYEKHKVYACEVTHQGLSSPVTKSFNRGEC | 2.08 | 0.000232 | 111000 | – | – | –
10 | DVD043 (bispecific antibody, human IgG1, kappa, DVD-Ig; N-term; VD VEGF (AB014), C-term; VD DLL4 (AB015); HC linker short, LC linker short; also called DVD-Ig DVD043; DVD043H) heavy: not shown light: DIQMTQSPSSLSASVGDRVTITCSASQDISNYLNWYQQKPGKAPKVLIYFTSSLHSGVPSRFSGSGSGTDFTLTISSLQPEDFATYYCQQYSTVPWTFGQGTKVEIKRTVAAPDIQMTQSPSSLSASVGDRVTITCRASQDVSTAVAWYQQKPGKAPKLLIYSASFLYSGVPSRFSGSGSGTDFTLTISSLQPEDFATTYYCQQSYTGTVTFGQGTKVEIKRTVAAPSVFIFPPSDEQLKSGTASVVCLLNNFYPREAKVQWKVDNALQSGNSQESVTEQDSKDSTYSLSSTLTLSKADYEKHKVYACEVTHQGLSSPVTKSFNRGEC | 8.4 | 0.000281 | 33400 | – | – | –
11 | DVD476 (bispecific antibody, human IgG1, kappa, DVD-Ig; N-term; VD VEGF (AB014), C-term; VD DLL4 (AB015); HC linker long, LC linker short; also called DVD-Ig DVD476; DVD476H) heavy: not shown light: DIQMTQSPSSLSASVGDRVTITCSASQDISNYLNWYQQKPGKAPKVLIYFTSSLHSGVPSRFSGSGSGTDFTLTISSLQPEDFATYYCQQYSTVPWTFGQGTKVEIKRTVAAPDIQMTQSPSSLSASVGDRVTITCRASQDVSTAVAWYQQKPGKAPKLLIYSASFLYSGVPSRFSGSGSGTDFTLTISSLQPEDFATTYYCQQSYTGTVTFGQGTKVEIKRTVAAPSVFIFPPSDEQLKSGTASVVCLLNNFYPREAKVQWKVDNALQSGNSQESVTEQDSKDSTYSLSSTLTLSKADYEKHKVYACEVTHQGLSSPVTKSFNRGEC | 2.96 | 0.000167 | 56300 | – | – | –
12 | DVD468 (bispecific antibody, human IgG1, kappa, DVD-Ig; N-term; AB071 (VEGF), C-term; AB015 (DLL4); HC linker short, LC linker short; also called DVD468H; DVD468L) heavy: not shown light: DIQMTQSPSSLSASVGDRVTITCRASQVIRRSLAWYQQKPGKAPKLLIYAASNLASGVPSRFSGSGSGTDFTLTISSLQPEDFATYYCQQSNTSPLTFGQGTKVEIKRTVAAPDIQMTQSPSSLSASVGDRVTITCRASQDVSTAVAWYQQKPGKAPKLLIYSASFLYSGVPSRFSGSGSGTDFTLTISSLQPEDFATTYYCQQSYTGTVTFGQGTKVEIKRTVAAPSVFIFPPSDEQLKSGTASVVCLLNNFYPREAKVQWKVDNALQSGNSQESVTEQDSKDSTYSLSSTLTLSKADYEKHKVYACEVTHQGLSSPVTKSFNRGEC | – | – | – | 0.00148 | 1.74e-07 | 118000
13 | DVD494 (bispecific antibody, human IgG1, kappa, DVD-Ig; N-term; VD VEGF (AB014), C-term; VD DLL4 (AB072); HC linker long, LC linker long; also called DVD-Ig DVD494; DVD494H) heavy: not shown light: DIQMTQSPSSLSASVGDRVTITCSASQDISNYLNWYQQKPGKAPKVLIYFTSSLHSGVPSRFSGSGSGTDFTLTISSLQPEDFATYYCQQYSTVPWTFGQGTKVEIKRTVAAPSVFIFPPDIQMTQSSSYLSVSLGGRVTITCKASDHINNWLAWYQQKPGNAPRLLISGATSLETGVPSRFSGSGSGKDYTLSITSLQTEDVATYYCQQYWSIPLTFGAGTKLELKRTVAAPSVFIFPPSDEQLKSGTASVVCLLNNFYPREAKVQWKVDNALQSGNSQESVTEQDSKDSTYSLSSTLTLSKADYEKHKVYACEVTHQGLSSPVTKSFNRGEC | 1.39 | 0.000183 | 132000 | – | – | –
14 | DVD503 (bispecific antibody, human IgG1, kappa, DVD-Ig; N-term; AB072 (DLL4), C-term; AB071 (VEGF); HC linker long, LC linker short; also called DVD503H; DVD503L) heavy: not shown light: DIQMTQSSSYLSVSLGGRVTITCKASDHINNWLAWYQQKPGNAPRLLISGATSLETGVPSRFSGSGSGKDYTLSITSLQTEDVATYYCQQYWSIPLTFGAGTKLELKRTVAAPDIQMTQSPSSLSASVGDRVTITCRASQVIRRSLAWYQQKPGKAPKLLIYAASNLASGVPSRFSGSGSGTDFTLTISSLQPEDFATYYCQQSNTSPLTFGQGTKVEIKRTVAAPSVFIFPPSDEQLKSGTASVVCLLNNFYPREAKVQWKVDNALQSGNSQESVTEQDSKDSTYSLSSTLTLSKADYEKHKVYACEVTHQGLSSPVTKSFNRGEC | – | – | – | 0.466 | 0.000105 | 226000
